Measurements as given in US20160264669A1 (ARGEN X N V, published 2016).

T1: murine CD16-2 (Sino Biological Inc., 50036-M27H-B) (murine, UniProt A0A0B4J1G0 21-203, Probably biotinylated on the vendor's tag (catalogue suffix -B); not carried in the letters)
T1 construct: Purchased reagent; Biotinylation is only implied by 'a similar experimental procedure as described above'; also called mCD16-2
T1 sequence: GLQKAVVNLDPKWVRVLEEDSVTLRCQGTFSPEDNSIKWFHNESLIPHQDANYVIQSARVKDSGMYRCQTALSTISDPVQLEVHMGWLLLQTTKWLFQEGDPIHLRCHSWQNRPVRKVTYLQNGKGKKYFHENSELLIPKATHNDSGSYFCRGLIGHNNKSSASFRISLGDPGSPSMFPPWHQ


Key:
[1] = target: T1, murine CD16-2 (Sino Biological Inc., …); test: ELISA on murine CD16-2, procedure similar to the hCD16a ELISA
Experimental: (§1) Specifically, a Maxisorp plate was coated with 100 ng/well of Neutravidin Biotin-binding Protein (ThermoScientific, 31000) and incubated overnight at 4° C. The following day, the plate was blocked with PBS+1% casein for 2 hours at room temperature. […] Binding to hCD16a was detected using an HRP-conjugated polyclonal goat anti-human Fc antibody (Jackson ImmunoResearch, 109-035-008) (incubation 1 hour at RT, dilution 1/50,000 in PBS+0.1% casein), followed by addition of 100 μl room temperature-equilibrated TMB (SDT-reagents #s TMB). Plates were incubated for 10 minutes prior to addition of 100 μl 0.5N H₂SO₄ and OD450 nm measurement. EC50 values were determined using GraphPad Prism software.
Using a similar experimental procedure as described above, the binding affinity for murine CD16-2 (Sino Biological Inc., 50036-M27H-B) was determined.

[2] = target: T2, biotinylated hCD16a (Sino Biological Inc., 10389-H27H1-B) (human, UniProt P08637 17-208, biotinylated (site not stated)); test: ELISA; biotinylated hCD16a captured on neutravidin plate, anti-human Fc-HRP detection
T2 construct: Purchased reagent; also called human CD16a
Experimental: as §1

[3] = target: T2, biotinylated hCD16a (Sino Biological …); test: ELISA; biotinylated hCD16a captured on neutravidin plate; reference is fucosylated Fc-Abdeg
Experimental: as §1

T2 sequence (P08637 17-208 limits assumed): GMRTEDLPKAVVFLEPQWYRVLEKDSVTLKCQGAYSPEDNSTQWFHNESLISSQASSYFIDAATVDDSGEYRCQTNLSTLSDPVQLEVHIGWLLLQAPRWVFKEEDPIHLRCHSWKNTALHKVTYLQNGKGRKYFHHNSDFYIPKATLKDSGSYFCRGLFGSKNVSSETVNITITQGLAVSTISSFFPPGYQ

EC50 [1] [nM]	EC50 [2] [nM]	fold increase in affinity vs Fc-Abdeg [3] [fold]	Binder
11	13	> 30	Fc-Abdeg-POT (other, afucosylated (defucosylated) N-linked glycan, also called afucosylated form of Fc-Abdeg; afucosylated variant) DKTHTCPPCPAPELLGGPSVFLFPPKPKDTLYITREPEVTCVVVDVSHEDPEVKFNWYVDGVEVHNAKTKPREEQYNSTYRVVSVLTVLHQDWLNGKEYKCKVSNKALPAPIEKTISKAKGQPREPQVYTLPPSRDELTKNQVSLTCLVKGFYPSDIAVEWESNGQPENNYKTTPPVLDSDGSFFLYSKLTVDKSRWQQGNVFSCSVMHEALKFHYTQKSLSLSPGK
> 100	–	–	Fc-Abdeg (other, Isolated variant human IgG Fc region with no variable region; Produced in CHO cells, fucosylated; also called wild-type Fc-Abdeg; fucosylated Fc-Abdeg) DKTHTCPPCPAPELLGGPSVFLFPPKPKDTLYITREPEVTCVVVDVSHEDPEVKFNWYVDGVEVHNAKTKPREEQYNSTYRVVSVLTVLHQDWLNGKEYKCKVSNKALPAPIEKTISKAKGQPREPQVYTLPPSRDELTKNQVSLTCLVKGFYPSDIAVEWESNGQPENNYKTTPPVLDSDGSFFLYSKLTVDKSRWQQGNVFSCSVMHEALKFHYTQKSLSLSPGK
–	6	–	Fc-Abdeg-S239D/I332E (other, also called Fc-Abdeg-S239D/I332E variant) DKTHTCPPCPAPELLGGPDVFLFPPKPKDTLYITREPEVTCVVVDVSHEDPEVKFNWYVDGVEVHNAKTKPREEQYNSTYRVVSVLTVLHQDWLNGKEYKCKVSNKALPAPEEKTISKAKGQPREPQVYTLPPSRDELTKNQVSLTCLVKGFYPSDIAVEWESNGQPENNYKTTPPVLDSDGSFFLYSKLTVDKSRWQQGNVFSCSVMHEALKFHYTQKSLSLSPGK
